# Assay: yeast display, Sf9 membrane polyspecificity reagent, FACS + sequencing; frameworks hold sequencing errors
# Outline: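 Galactose-induced (36–48 hours) yeast carrying a synthetic nanobody display library were exposed to 10% biotinylated, detergent-solubilized Sf9 membrane reagent at 4 °C for 1 hour. FACS followed streptavidin microbead enrichment, using low and high (top ~1%) gates for expression (anti-HA) and reagent binding (streptavidin). Colony PCR, MiSeq 2 × 250 sequencing and CDR-length filtering followed. Labels for polyreactivity reflect the gate of origin.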
row,Sequence,polyreactivity (PSR sort gate)
1,QVQLVESGGGLVQAGGRLRLSCAASGSIILFKDMGWYGQAPGKERELVADITWSGGSTYYADSVKGRFTISCDNAKNTVYLQMHSLKPEDTAVDYCADDPDYYFTRGNYQWGYYWGQGTQVTVSS,low polyreactivity
2,QVQLVESGGGLVQAGGRLRLSCAASGSTFFAYAMGWYRQAPGKQRELVAAITGRGSTYYADSVKGRFTISRDNAKNTVYLQMNSLKAEDTAVYYCAAQRSRRYYRLDFWGQGTQVTVSS,high polyreactivity
3,QVQLVESGGGLVQAGGRLRLSCAASGSTFGTYAMGWYRHAPGKERELVAAITRSGGSTYYADSVKGRFTISRDNAKNTVYLQMNSLKPDDTAVFYCAAVSKGYYYWGQGTQVTVSS,high polyreactivity
4,QVQLVESGGGLVQAGGRLRLSCAASGSTFGYYAMGWYRQAPGKERELVAAITFSVGGTYYADSVKGRFTISRDNAKNTVYLQMNSLKPEDTAVYYCNVDYYVPPAGVTRTGDDVYWGKGTQVTVSS,low polyreactivity
5,QVQLVESGGGLVQAGGRLRLSCAASGSTFLQNAMGWYRQAPGKEREFVAAISRSGGSTYYADSVKGRFTISRDNAKNTVYLQMNSLKPEDTAVYYCARRYWPGSAYWIYDYWGQGTQVTVSS,high polyreactivity
6,QVQLVESGGGLVQAGGRLRLSCAASGSTFLVYAMGWYRQAPGKERELVAAIDSGVSTYYADSVKGLFTISRDNAKNTVYLQMNSLKPEDTAVYYCNGYDYWGQGTQVTVSS,low polyreactivity
7,QVQLVESGGGLVQAGGRLRLSCAASGSTFRSNVMGRYRQATGKERELVAAITSGSITNYADSVKGRFTISRDNAKNTVYLQMNSLKPEDTAVYYCAVETYVYGRMGYLGQGTQVTVSS,high polyreactivity
8,QVQLVESGGGLVQAGGRLRLSCAASGSTLEINGMGWYRQAPGKEREFVADISIGGDTNYADSVKGRFTISRDNAKNTEMNSLKPEDTAVYYCNTDYFGSLVVVIFDYWGQGTQVSVSS,low polyreactivity
9,QVQLVESGGGLVQAGGRLRLSCAASGSTLYAYGMGWYRQAPGKERELVAAIRTGGSTYYADSVKGRFTISRDNAKITVYLQMNSLKPEDTAVYYCAADHGYQYGYWGQGTQVTVSS,low polyreactivity
10,QVQLVESGGGLVQAGGRLRLSCAASGSTSVYYARGWYRQAPGKERELVAGITSGGNTNYADSVKGRFTISRDNAKNTVYFQMISLNPEDTSVYYCNAVYIVTVGWIRLGSYYYWGQGTQVTVSS,low polyreactivity
11,QVQLVESGGGLVQAGGRLRLSCAASGSTVVFNAMGWYRQAPGKERELVAAISKSGGSTYYADSVKGRFTISRDNAKNTVYLQMNSLKPEDTAVYYCNRVSRKILDGDYDYWGQGTQVTVSS,high polyreactivity
12,QVQLVESGGGLVQAGGRLRLSCAASGYIFGWNAMGWYRQAPGKERELVAAISSGGNTKYADSVKGRFTISRDNAKNTVYLQMNSLKPEDTAVYYCNADFRVYIPHVPYFVDFDYWGQGTQVTVSS,low polyreactivity
13,QVQLVESGGGLVQAGGRLRLSCAATGRTFLAYAMGWYREAPGKERELVAAITIGGGTYADSVKGRFTISRDNAKNTVYLQMNSLKQEDTAVYYCAKPGWYDGDYWGQGTQVTVSS,low polyreactivity
14,QVQLVESGGGLVQAGGRLRLSCAATGSIFRGYAMGWYRQAPGKERELVAAISYRGGSTYYADSVKGRFTISRDNAKNTVYLQMNSLKPEDTAVDYWAAVYSHYWWFDYWGQGTQVTVSS,high polyreactivity
15,QVQLVESGGGLVQAGGRLRLSCAPSGIIFQQYAMGWYRQAPGKERELVAAISRGGTRTYYADSVKGRFTISRDNAKNTVYLLMNSLKPEDTAVDYCAADRGYFSYDYWGQGTQVTVSS,high polyreactivity
16,QVQLVESGGGLVQAGGRLRLSCAPSGSTFPPYAMGWYRQAPGKERELVADITRRGASTYYADSVKGRFTISRDNAKNTVYLQMNSLKPEDTAVYYCAARFYYQYYSGFDYWGQGTQVTVST,high polyreactivity
17,QVQLVESGGGLVQAGGRLRLSCPASGGTFGYNAMGWYRQAPGKERELVAAIRNGGSTYFADSVKGRFTISRDNAKNTVYLQMNSLKPEESAVYYCAAGPRGTGKYYWGQGTQVTVSS,high polyreactivity
18,QVQLVESGGGLVQAGGRLRLSCPASGRIFSLYAMGWYRQAPGKERELVAVISSTGVSSHYADSVKGRFTISRDNAKYTVYLLMNSLNPEDTAVYYCNARWSFPRWGYEYGYWGQGTQVTVSS,high polyreactivity
19,QVQLVESGGGLVQAGGRLRLSCPASGRTFRGYARGWYRQAPRKERELLAAITSGGSTNYADSVKGRFTISRDNAKNTVYLQKKSLKPEDTAVYYCAADSWFYGGEYKLGYYWGQGTQVSVSS,low polyreactivity
20,QVQLVESGGGLVQAGGRLRLSFAASGITFYVYTMGWYRQAPGKERELVPAISTTGSTNYADSVKGRFTISRDNAKNTVYLQMNSLKPEDTAVYYCNAKYYWLVFEYDYWGQGTQVTVSS,high polyreactivity
21,QVQLVESGGGLVQAGGRLRLSGAASGSIYFRNVMGWYRQAPGKERELVAAITWSGGGTYYPDSVKGRFTISRDNAKNTVYLQMNSLQPEDTAFYYCAARSPTIRYGAGYWGQVTQVTVSS,low polyreactivity

row,Sequence,polyreactivity (PSR sort gate)
1,QVQLVESGGGLVQAGGRLRLSGAASGSTFGGYAMGWYRQAPGKERELVASINYGGDTTYYADSVKGRFTISRDNAKNTVYLQMNSLKPEDTAVYYCATDGTTPTPRYAFVRFDHWGQGTQVTVSS,low polyreactivity
2,QVQLVESGGGLVQAGGRLRLSSAASGRIFTNYAMGWYRQAPGKERELVARISKRGGSTYYADSVKGRLTFSRDNAKNTVYLQMNSLKPEDTAVYYCNAVSNLYYYWGQGTQVTVSS,high polyreactivity
3,QVQLVESGGGLVQAGGRLRLSSAASGSTFPYNAMGWYRQAPGKERELVADITSGSSTYYADSGKGRFTISRDNAKNTVYLQMNSLKPEDTAVYYCAATYFVWLNAGGRGYWGQGTQVTVSS,low polyreactivity
4,QVQLVESGGGLVQAGGRLRLTCAASGFIFGYYTMGWYRQAPGKERELVASITRGGSTNYADSVKGRFTISRDNAKNTVYLQMNSLKPEDTAVYYCAKRYAQTYSVSRYYYWGQGTQVTVSS,high polyreactivity
5,QVQLVESGGGLVQAGGRLRLTCAASGSIFGTYAMGWYRQAPGKERELVAAINSGDSTYYADSVKGRFTISRDNAKNTVYLQMNSLKPEDTAVYYCAAGRYWPGDYWGQGTQVTVSS,high polyreactivity
6,QVQLVESGGGLVQAGGRLRLTCAASGSIFWSNAMGLYRQAPGKERELVAAITSGGSTYYADSVKGRFTISRDNAKNTVYLQMNSLKPEDTAVYYCAARPEVRHQYRRYDYWGQGTQVTVSS,low polyreactivity
7,QVQLVESGGGLVQAGGRLSLSCAASGSIFSIYAMGWYRPSPGKERELVSGIRSTVSTNYADSVKGRFTISRDNAKNTVYLQMNSLKPEDTAVYYCATGTPTAPGNYWGQGTQVTVSS,low polyreactivity
8,QVQLVESGGGLVQAGGSHRLICAASGFIVSYHAMGWYRPAPGKESELVAAISSRGGSTYYADSVKGRFTISRDNAKNTVYLQMNSLKPEDTAVYYCATAGLTYRALRYYWGQGTQVTVSS,high polyreactivity
9,QVQLVESGGGLVQAGGSHRLSCAASGFTFVYYAMGWYRQAPGKERELVAAISARTSGTYYADSVKGRFTISRDNAKNTVYLQMNSLTPEDTAVYYCAAGYSYVYWSESAYDYWGQGTQVTVSS,low polyreactivity
10,QVQLVESGGGLVQAGGSHRLSCAASGFTIYGNAMGWYRQAPGKERELVAAISGSGGITYYADSVKGRFTISRDNAKNTVYLQMNSLKPEDTAVYYCAAEFWVSRSIWLYYYWGQGTQVTVSS,high polyreactivity
11,QVQLVESGGGLVQAGGSHRLSCAASGGTFRSNAMGWYRQAPGKERELVAAITSNGGRTYYADSVKGRFTISRDNAKNTVYLQMNSLKPEDTAVYYCAALGGYRRPLYGYDYWGQGTQVTVSS,high polyreactivity
12,QVQLVESGGGLVQAGGSHRLSCAASGGTFYYYTMGWYRQAPGKERELVAAISWSGGSTYYADSVKGRFTISRNNEKNTVYLQMKSLKPEDSAVYYCNAVYAGRFGSHYWGQCTQVTVSS,high polyreactivity
13,QVQLVESGGGLVQAGGSHRLSCAASGIIFRFYAMGCYRQAPGTERELVAAITSSGGSTYYADSVKGRFTISRDNAKNTVYLQMNSLNPEDTAVYYCYARVFSQSHYYYWGQGTQVTLSS,high polyreactivity
14,QVQLVESGGGLVQAGGSHRLSCAASGIISPFYAMGWYRQAPGKERELVADISTGGTTTYADSVKGRFTISRDNAKNTVYLQMNSLKPEDTAVYYCNAEVSLTYYWIVWASYDYWGQGTQVTVSS,low polyreactivity
15,QVQLVESGGGLVQAGGSHRLSCAASGITFRRYAMGWYRQAPGKERELVARITDRGSTYYADSVKGRFTSSRDNAKNTVYLQMNSLKPEDTAVYYCAARGYRGLVQLRYGYWGQGTQVTVSS,high polyreactivity
16,QVQLVESGGGLVQAGGSHRLSCAASGITFRWYTMGWYRQAPGKERELVAAITGSGCTTYYADSVKGRFTISRDNAKNNVYLQMYSLKPEDSAVYYCAAEFYGLVYVPPYDYWGQGTQVTVSS,high polyreactivity
17,QVQLVESGGGLVQAGGSHRLSCAASGLNFGDNTMGWYRQAPGKERELVAAISGDVITTYADSVKGRFTISRDNAKNTVYLQMNSLKPEDTAVYYCNAEVKRYYSGLPQYFAGLGYWGQGTQVTVSS,low polyreactivity
18,QVQLVESGGGLVQAGGSHRLSCAASGLTFRKYAMGWYRQAPGKERELVATISRNGGSTYYADSVKGRFTISRDNAKNTVYLQMNSLKPEDTAVYYCAADYYTYDYAGYGDWGQGTQVTVSS,high polyreactivity
19,QVQLVESGGGLVQAGGSHRLSCAASGNTFYDYAMGWYRQAPGKERELVAAISSDGNTYYADSVKGRFTFSRDNAKKTVYLQMNSLKPVDTAVYYCAADAWRYYYLSWFGSIGFDYWGQGTQVTVSS,high polyreactivity
20,QVQLVESGGGLVQAGGSHRLSCAASGRIFDKYAMGWYRQAPGKERELVATITSSGGSTYYADSVKGRFTISRDNAKNTVYLQMNSLKPEDTAVYYCAALDRTGWGYDYWGQGTQVTVSS,low polyreactivity

# — the nanobody polyreactivity screen of Harvey et al. (2022)
